# According to patent publication US20250250350A1:
# B1: Myc-tag ALPG/P priming receptor: anti-ALPG/P scFv-CD8α hinge-Notch1 TMD-Notch1 STS-HNF1aDBD-p65 activation domain (protein, not shown: small tags and cut ends)
# chain: DIQMTQSPSSLSASVGDRVTITCRASENIYSYVAWYQQKPGKAPKLLIYNAKSLASGVPSRFSGSGSGTDFTLTISSLQPEDFATYYCQHHYVSPWTFGGGTKLEIKGGGGSGGGGSGGGGSQVQLQESGPGLVKPSETLSLTCTVSGFSLTSYGVSWIRQPAGKGLEWIGVIWEDGSTNYHSALISRVTMSVDTSKNQFSLKLSSVTAADTAVYYCARPHYGSSYVGAMEYWGAGTTVTVSSATTTPAPRPPTPAPTIASQPLSLRPEACFMYVAAAAFVLLFFVGCGVLLSRKRRRQHGQLWFPEGFKVSEASKKKRREPLGEDSVGLKPLKNAMVSKLSQLQTELLAALLESGLSKEALLQALGEPGPYLLAGEGPLDKGESCGGGRGELAELPNGLGETRGSEDETDDDGEDFTPPILKELENLSPEEAAHQKAVVETLLQEDPWRVAKMVKSYLQQHNIPQREVVDTTGLNQSHLSQHLNKGTPMKTQKRAALYTWYVRKQREVAQQFTHAGQGGLIEEPTGDELPTKKGRRNRFKWGPASQQILFQAYERQKNPSKEERETLVEECNRAECIQRGVSPSQAQGLGSNLVTEVRVYNWFANRRKEEAFRHKLAMTCRDEFPTMVFPSGQISQASALAPAPPQVLPQAPAPAPAPAMVSALAQAPAPVPVLAPGPPQAVAPPAPKPTQAGEGTLSEALLQLQFDDEDLGALLGNSTDPAVFTDLASVDNSEFQQLLNQGIPVAPHTTEPMLMEYPEAITRLVTGAQRPPDPAPAPLGAPGLPNGLLSGDEDFSSIADMDFSALLSQISS
# Molecular target: Alkaline Phosphatase, Germ Cell (ALPG) expressed on K562-ALPG and K562-ALPG/MSLN target cells (UniProt P10696)
# Sequence (P10696 20-503): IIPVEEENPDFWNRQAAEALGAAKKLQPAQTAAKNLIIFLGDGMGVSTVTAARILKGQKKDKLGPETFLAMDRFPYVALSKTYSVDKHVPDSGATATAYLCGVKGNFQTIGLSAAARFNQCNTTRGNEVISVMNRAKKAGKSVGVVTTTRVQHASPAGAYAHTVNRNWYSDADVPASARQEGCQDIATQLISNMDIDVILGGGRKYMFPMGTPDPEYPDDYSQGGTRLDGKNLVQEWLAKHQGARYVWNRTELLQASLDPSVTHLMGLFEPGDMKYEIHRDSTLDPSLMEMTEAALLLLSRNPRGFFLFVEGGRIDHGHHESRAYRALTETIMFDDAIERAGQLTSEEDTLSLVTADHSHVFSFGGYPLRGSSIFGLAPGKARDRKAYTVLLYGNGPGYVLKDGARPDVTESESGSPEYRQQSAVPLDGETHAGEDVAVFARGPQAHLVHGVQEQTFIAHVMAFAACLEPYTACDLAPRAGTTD
binder,measurement,value
B1,"% of LG1 T cells CAR+ PrimeR+ (upper right quadrant) after 72 h with K562 ALPG high, 1:1",0.043%
same,"% of LG1 T cells CAR+ PrimeR+ (upper right quadrant) after 72 h with K562 ALPG low, 1:1",0.25%
same,"% of LG1 T cells CAR+ PrimeR+ (upper right quadrant), T cells alone, no ALPG cells (baseline)",1.11%
same,"% of LG1 T cells CAR+ PrimeR- (upper left quadrant) after 72 h with K562 ALPG high, 1:1",5.29%
same,"% of LG1 T cells CAR+ PrimeR- (upper left quadrant) after 72 h with K562 ALPG low, 1:1",5.88%
same,"% of LG1 T cells CAR+ PrimeR- (upper left quadrant; FLAG APC vs myc PE), T cells alone, no ALPG cells (baseline)",0.12%
same,"% of LG1 T cells PrimeR+ CAR- (lower right quadrant) after 72 h with K562 ALPG high, 1:1",0.043%
same,"% of LG1 T cells PrimeR+ CAR- (lower right quadrant) after 72 h with K562 ALPG low, 1:1",0.44%
same,"% of LG1 T cells PrimeR+ CAR- (lower right quadrant), T cells alone, no ALPG cells (baseline)",12%
